Source: patent US20250011363A1, “OPTIMIZED SHORTENED PEPTIDE THAT BINDS TO ACETYLCHOLINE RECEPTOR, AND USE THEREOF” (SKINMED CO., LTD., priority 2021, published 2025)

Target: acetylcholine receptor
Test: SPR, receptor immobilized, peptide 10 uM

| Binding affinity (RU) | Binder |
| --- | --- |
| 26 | RETGK [5mer-1070] |
| 23 | RHTVK [5mer-775] |
| 17 | RPCPR [5mer-1074] |
| 16 | RYEGR [5mer-1071] |
| 31 | RPSFK [5mer-1069] |
| 25 | RTCDR [5mer-774] |
| 25 | RPNMR [5mer-773] |
| 11 | KYWFK [5mer-772] |
| 23 | KHENK [5mer-1067] |
| 24 | RKWVK [5mer-771] |
| 12 | RFHFK [5mer-767] |
| 24 | KDSFR [5mer-1061] |
| 19 | KTWPK [5mer-764] |
| 20 | RPHVK [5mer-1063] |
| 25 | RFWVK [5mer-1066] |
| 12 | RNEFR [5mer-765] |
| 30 | RNMEK [5mer-766] |
| 32 | KDWPK [5mer-1072] |
| 32 | KTEWK [5mer-769] |
| 18 | KNPIR [5mer-1065] |
| 11 | RMHKK [5mer-1068] |
| 29 | RDEAK [5mer-1073] |
| 11 | KKPFR [5mer-770] |
| 30 | RCHVR [5mer-763] |
| 24 | RAPWR [5mer-1062] |
| 11 | RDSWR [5mer-768] |
| 20 | KCMKR [5mer-1064] |
| 21 | KMPER [5mer-762] |

Target: acetylcholine receptor
Test: SPR, AchR immobilised on CM5 chip, peptide 10 uM

| Binding affinity (RU) | Binder |
| --- | --- |
| 29 | RKEDKR [6mer-1-950] |
| 43 | RRHTHK [6mer-1-972] |
| 27 | RKPAHK [6mer-1-974] |
| 42 | RKFKNK [6mer-1-964] |
| 36 | KKIWFR [6mer-1-959] |
| 42 | KKNCDK [6mer-1-962] |
| 43 | KKPPDK [6mer-1-957] |
| 31 | RRCEPR [6mer-1-946] |
| 31 | RKTSIK [6mer-1-945] |
| 29 | RKAMDK [6mer-1-951] |
| 37 | RKEMPR [6mer-1-949] |
| 41 | KKAKGR [6mer-1-954] |
| 43 | RRKSHK [6mer-1-978] |
| 26 | KRTNGK [6mer-1-953] |
| 42 | RRYWEK [6mer-1-979] |
| 23 | RKECFK [6mer-1-955] |
| 33 | RKICAK [6mer-1-980] |
| 24 | RRTEDR [6mer-1-967] |
| 28 | KRHDKK [6mer-1-952] |

| Binding affinity (RU) | Binder |
| --- | --- |
| 29 | RREEDK [6mer-1-963] |
| 34 | KKCPFR [6mer-1-960] |
| 31 | KRTKGR [6mer-1-947] |
| 24 | RKFTVR [6mer-1-948] |
| 122 | RRTWAR [6mer-1-961] |
| 39 | RREDFR [6mer-1-968] |
| 34 | KRKSNK [6mer-1-956] |
| 40 | RKEMIK [6mer-1-976] |
| 32 | RKIEMK [6mer-1-971] |
| 36 | KRIWDK [6mer-1-965] |
| 38 | RRCCAR [6mer-1-970] |
| 22 | RRNSWK [6mer-1-966] |
| 27 | RKDDKK [6mer-1-981] |
| 43 | KRYAGR [6mer-1-958] |
| 33 | RKDHWR [6mer-1-969] |
| 22 | RKASIK [6mer-1-975] |
| 43 | RRPCFR [6mer-1-977] |
| 25 | RRDHVK [6mer-1-973] |

The remaining lines, values behind:

| Binder | Binding affinity (RU) |
| --- | --- |
| KKEHDK [6mer-1-943] | 43 |
| KRNDFK [6mer-1-939] | 41 |
| KRPPGK [6mer-1-934] | 39 |
| RKPTNR [6mer-1-937] | 34 |
| RRPWNR [6mer-1-933] | 28 |
| RKPAGK [6mer-1-944] | 25 |
| KRFEFK [6mer-1-932] | 38 |
| RKTPKK [6mer-1-941] | 29 |
| RRMMVR [6mer-1-942] | 37 |
| RKPEDR [6mer-1-940] | 29 |
| RKKDIK [6mer-1-935] | 40 |
| KKIAWK [6mer-1-938] | 28 |
| RKETDR [6mer-1-936] | 36 |
